± gives the uncertainty stated by the source.
Test: self-splicing fitness, log relative to wild type (ln ratio); higher = more splicing; Tetrahymena group I intron in knt gene, E. coli kanamycin selection, DiMSum; sequences stand for … in CUCUCU…GGAGGGAAAAGUUAUCAGGCAUGCACCUGGUAGCUAGUCUUUAAACCAAUAGAUUGCAUCGGUUUAAAAGGCAAGACCGUCAAAUUGCGGGAAAGGGGUCAACAGCCGUUCAGUACCAAGUCUCAGGGGAAACUUUGAGAUGGCCUUGCAAAGGGUAUGGUAAUAAGCUGACGGACAUGGUCCUAACCACGCAGCCAAGUCCUAAGUCAACAGAUCUUCUGUUGAUAUGGAUGCAGUUCACAGACUAAAUGUCGGUCGGGGAAGAUGUAUUCUUCUCAUAAGAUAUAGUCGGACCUCUCCUUAAUGGGAGCUAGCGGAUGAAGUGAUGCAACACUGGAGCCGCUGGGAACUAAUUUGUAUGCGAAAGUAUAUUGAUUAGUUUUGGAGUACUCGUGGUCG
Summary of the method: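 Library with all eight P1ex-region intron nucleotides randomised, intron inside the knt kanamycin-resistance gene on pET-22b(+), in E. coli BL21(DE3). Cells grew overnight at 37°C or 30°C on LB agar with or without 25 μg/mL kanamycin (plus 100 μg/mL carbenicillin, 50 μM IPTG, 0.2% rhamnose), in six replicate transformations. Pooled colonies were amplicon-sequenced on Illumina HiSeq 2500. DiMSum fitness is the error-weighted combination of wild-type-normalised replicate fold changes, kanamycin versus none.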

| Sequence | self-splicing fitness (ln) (30 °C) | self-splicing fitness (ln) (37 °C) |
| --- | --- | --- |
| UCGGAGCAAUAUUACGGAAC | -3.36 ± 0.38 |  |
| GGUAAGCAAUAUUACGCGAU | -2.17 ± 0.3 |  |
| UGUUAGCAAUAUUACGUAAU | -2.96 ± 0.3 | -1.02 ± 0.21 |
| AUAGAGCAAUAUUACGUCGC | -2.68 ± 0.2 | -0.381 ± 0.18 |
| UUUUAGCAAUAUUACGUUGC | -2.8 ± 0.43 |  |
| GAAAAGCAAUAUUACGUACA | -0.498 ± 0.066 | -0.0587 ± 0.082 |
| ACCCAGCAAUAUUACGGAUG | -1.57 ± 0.067 | -0.939 ± 0.083 |
| CCUCAGCAAUAUUACGUUGG | -3.17 ± 0.13 | -3.24 ± 0.21 |
| UAUUAGCAAUAUUACGAAUC | -3.46 ± 0.23 | -0.913 ± 0.2 |
| UGAGAGCAAUAUUACGCGGC | -3.04 ± 0.46 | -1.58 ± 0.44 |
| ACAGAGCAAUAUUACGCUGC | -4.55 ± 0.46 |  |
| ACACAGCAAUAUUACGUUGC | -3.87 ± 0.11 | -2.58 ± 0.12 |
| UUGCAGCAAUAUUACGCUCA | -0.833 ± 0.18 | -0.278 ± 0.17 |
| GUGCAGCAAUAUUACGUGAG | -0.173 ± 0.054 | -0.117 ± 0.084 |
| GUCGAGCAAUAUUACGAAGU | -1.31 ± 0.33 | -1.65 ± 0.4 |
| UGGCAGCAAUAUUACGAACU | -1.29 ± 0.12 | -0.471 ± 0.16 |
| ACCAAGCAAUAUUACGCGAA | -3.09 ± 0.13 | -1.65 ± 0.1 |
| GGUUAGCAAUAUUACGUAAU | -2.05 ± 0.22 | -0.725 ± 0.21 |
| UAUGAGCAAUAUUACGUCGU | -3.39 ± 0.3 | -2.93 ± 0.32 |
| AAGCAGCAAUAUUACGCACA | -0.331 ± 0.082 | 0.0315 ± 0.11 |
| UUAUAGCAAUAUUACGGGAC | -2.91 ± 0.31 | -2.4 ± 0.34 |
| UGGUAGCAAUAUUACGUACA | -0.28 ± 0.087 | 0.35 ± 0.12 |

| Sequence | self-splicing fitness (ln) (30 °C) | self-splicing fitness (ln) (37 °C) |
| --- | --- | --- |
| CAUCAGCAAUAUUACGUUCU | -3.82 ± 0.2 | -3.32 ± 0.23 |
| CUCAAGCAAUAUUACGACAA | -2.86 ± 0.23 | -1.89 ± 0.21 |
| UCCCAGCAAUAUUACGCCCU | -2.07 ± 0.15 | -1.03 ± 0.21 |
| CCAAAGCAAUAUUACGAUAA | -3 ± 0.17 | -0.828 ± 0.18 |
| UUGCAGCAAUAUUACGGACA | -0.355 ± 0.074 | -0.669 ± 0.091 |
| CAUCAGCAAUAUUACGCGCG | 0.0702 ± 0.07 | 0.438 ± 0.084 |
| GCGGAGCAAUAUUACGUUAG | -2.8 ± 0.23 | -1.99 ± 0.35 |
| UACGAGCAAUAUUACGCAAG | -2.57 ± 0.15 | -2.03 ± 0.35 |
| UGGGAGCAAUAUUACGCGGG | -3.85 ± 0.22 | -2.89 ± 0.19 |
| AAUAAGCAAUAUUACGAGCG | -1.5 ± 0.15 | -0.155 ± 0.17 |
| AAUAAGCAAUAUUACGGGAU | -2.73 ± 0.15 | -1.33 ± 0.14 |
| AUAGAGCAAUAUUACGGAUU | -0.783 ± 0.091 | -0.15 ± 0.14 |
| GCGCAGCAAUAUUACGGUAU | -0.825 ± 0.039 | -0.0516 ± 0.054 |
| CCUAAGCAAUAUUACGCACG | -3.1 ± 0.41 | -1.46 ± 0.23 |
| GGUAAGCAAUAUUACGUUGU | -3.1 ± 0.26 | -1.61 ± 0.36 |
| CUCGAGCAAUAUUACGAUUC | -3.29 ± 0.47 |  |
| UACUAGCAAUAUUACGCCGA | -1.25 ± 0.19 | -0.403 ± 0.17 |
| GGCCAGCAAUAUUACGGUGA | -0.376 ± 0.057 | 0.327 ± 0.076 |
| GCCGAGCAAUAUUACGAACC | -0.807 ± 0.22 | 0.455 ± 0.41 |
| GAAGAGCAAUAUUACGCAUA | -3.1 ± 0.19 | -2.62 ± 0.22 |
| UCUCAGCAAUAUUACGGGCU | -1.77 ± 0.18 | -2.43 ± 0.44 |

Reference: the supplement of paper PMC7877785
